Experimental data from US20060165681A1 (GlaxoSmithKline, published 2006).

T1: rat MAG-Fc fusion protein (R&D Systems; 538-MG) (rat; human, UniProt P07722 20-516, limits assumed)
T1 construct: Bought reagent coated on ELISA plates; not shown: human Fc
T1 sequence (looked up): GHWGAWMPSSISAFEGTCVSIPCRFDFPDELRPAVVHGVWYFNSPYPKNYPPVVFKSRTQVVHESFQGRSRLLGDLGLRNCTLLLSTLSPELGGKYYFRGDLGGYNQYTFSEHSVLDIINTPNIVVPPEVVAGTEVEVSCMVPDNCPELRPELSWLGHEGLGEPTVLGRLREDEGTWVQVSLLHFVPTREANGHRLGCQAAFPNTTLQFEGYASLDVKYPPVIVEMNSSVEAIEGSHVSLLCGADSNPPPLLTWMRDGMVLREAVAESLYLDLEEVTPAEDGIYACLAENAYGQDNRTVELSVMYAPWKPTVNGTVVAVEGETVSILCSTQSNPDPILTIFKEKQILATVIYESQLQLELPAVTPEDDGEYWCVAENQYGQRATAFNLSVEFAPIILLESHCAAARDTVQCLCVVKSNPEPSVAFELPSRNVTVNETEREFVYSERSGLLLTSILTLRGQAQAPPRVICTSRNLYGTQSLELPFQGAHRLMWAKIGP


Experiments:
[1] = biological target: T1, rat MAG-Fc fusion protein (R&D Systems; …); assay: ELISA on coated rat MAG-Fc, purified antibody
[2] = biological target: T1, rat MAG-Fc fusion protein (R&D Systems; …); assay: ELISA on coated rat MAG-Fc; purified antibody serially diluted from 5000 ng/ml
Experimental: 96-well Nunc Maxisorp plates were coated overnight at 4° C. with rat MAG-Fc fusion protein (2.5 μg/ml; R&D Systems; Cat.No. 538-MG) in PBS. Plates were washed twice with PBS containing Tween20 (0.1% v/v; PBST) and blocked with PBS containing BSA (1% w/v) for 1 h at room temperature (RT). Purified humanised antibody was adjusted to a starting concentration of 5 μg/ml in blocking buffer and then serial diluted. Antibody samples were incubated 1 h at RT and plates then washed 3× with PBST. Secondary antibody (Goat anti-human light chain specific-peroxidase conjugate; Sigma A-7164) was added diluted 1/5000 in blocking buffer and incubated for 1 h at RT. Wells were washed three times as above and binding detected by adding substrate (OPD tablets dissolved according to instructions; Sigma P-9187). Colour development was monitored and the reaction stopped using 3M H₂SO₄ Colour development was read at 490 nm.

binding result [1] | binding result [2] | Binder
binds | – | humanised anti-MAG antibody BVh1/CVl1 (antibody, V domains shown, The purified material has a mutated human IgG1 constant region (Kabat residues 248 and 250 changed to alanine) and a human kappa light chain; The antibody was also tested as culture supernatant on human MAG, and the constant region is not restated there; also called BVh1/CVl1 mutated IgG1) VH: QVQLVQSGSELKKPGASVKVSCKASGYTFTNYGMNWVRQAPGQGLEWMGWINTYTGEPTYADDFTGRFVFSLDTSVSTAYLQISSLKAEDTAVYYCARNPINYYGINYEGYVMDYWGQGTLVTVSS VL: not shown
– | binds | humanised anti-MAG antibody BVh3/CVl3 (antibody, human IgG1, V domains shown, The antibody was also tested as culture supernatant on human MAG) VH: QVQLVQSGSELKKPGASVKVSCKASGYTFTNYGMNWVRQAPGQGLEWMGWINTYTGEPTYADDFTGRFVFSLDTSVSTAYLQISSLKAEDTATYFCARNPINYYGINYEGYVMDYWGQGTLVTVSS VL: DIVMTQSPDSLAVSLGERATINCKSSHSVLYSSNQKNYLAWYQQKPGQPPKLLIYWASTRESGVPDRFSGSGSGTDFTLTISSLHTEDVAVYYCHQYLSSLTFGQGTKLEIKR
